Key:
Experiment in all cases: cell_activity
[1] = tested on: FucT1_T01 TALEN right monomer (synthetic (TAL effector-FokI-type nuclease)?); conditions: pair activity on full site SEQ 66, yeast 37C; 0.6 at 30C
[2] = tested on: XylT_T03 TALEN right monomer (synthetic (TAL effector-FokI-type nuclease)?); conditions: pair activity on full site SEQ 64, yeast 37C; 0.7 at 30C; protoplast NHEJ 34.4% XylT1, 28.2% XylT2 (Table 3)
[3] = tested on: FucT1_T02/FucT2_T02 TALEN right monomer (synthetic (TAL effector-FokI-type nuclease)?); conditions: pair activity with either left monomer (SEQ 68 or 69), yeast 37C; 0.7 at 30C
[4] = tested on: FucT2_T01 TALEN right monomer (synthetic (TAL effector-FokI-type nuclease)?); conditions: pair activity on full site SEQ 67, yeast 37C; 0.8 at 30C
[5] = tested on: XylT_T04 TALEN left monomer (synthetic (TAL effector-FokI-type nuclease)?); conditions: pair activity on full site SEQ 65, yeast 37C; 0.9 at 30C; protoplast NHEJ 73.8% XylT1, 63.9% XylT2 (Table 3)
[6] = tested on: FucT1_T01 TALEN left monomer (synthetic (TAL effector-FokI-type nuclease)?); conditions: pair activity on full site SEQ 66, yeast 37C; 0.6 at 30C
[7] = tested on: FucT2_T01 TALEN left monomer (synthetic (TAL effector-FokI-type nuclease)?); conditions: pair activity on full site SEQ 67, yeast 37C; 0.8 at 30C
[8] = tested on: FucT2_T02 TALEN left monomer (synthetic (TAL effector-FokI-type nuclease)?)
[9] = tested on: FucT1_T02 TALEN left monomer (synthetic (TAL effector-FokI-type nuclease)?)
[10] = tested on: XylT_T03 TALEN left monomer (synthetic (TAL effector-FokI-type nuclease)?); conditions: pair activity on full site SEQ 64, yeast 37C; 0.7 at 30C; protoplast NHEJ 34.4% XylT1, 28.2% XylT2 (Table 3)
[11] = tested on: FucT1_T04/FucT2_T04 TALEN left monomer (synthetic (TAL effector-FokI-type nuclease)?); conditions: pair activity on SEQ 70 and SEQ 71, yeast 37C; 0.5 at 30C
[12] = tested on: FucT1_T04/FucT2_T04 TALEN right monomer (synthetic (TAL effector-FokI-type nuclease)?); conditions: pair activity on SEQ 70 and SEQ 71, yeast 37C; 0.5 at 30C

Sequence: AATAAGCAATGGCGCAA (double strand) [FucT1_T01 target 2 (SEQ 54, printed as top strand)]
- activity (relative to I-SceI) [1]: 0.8

Sequence: ATCACTCTCTATCTCTA (double strand) [XylT_T03 target 2 (SEQ 50, printed as top strand)]
- activity (relative to I-SceI) [2]: 0.9

Sequence: CTCTGTTCGTTGCCCTA (double strand) [FucT_T02 target 2 (SEQ 58, printed as top strand)]
- activity (relative to I-SceI) [3]: 0.9

Sequence: GATAAACAATGGCGCAA (double strand) [FucT2_T01 target 2 (SEQ 56, printed as top strand)]
- activity (relative to I-SceI) [4]: 0.9

Sequence: TCTCTTCGCTCTCAACT (double strand) [XylT_T04 target 1 (SEQ 51)]
- activity (relative to I-SceI) [5]: 0.9

Sequence: TGAGATCGGCGTCAAAT (double strand) [FucT1_T01 target 1 (SEQ 53)]
- activity (relative to I-SceI) [6]: 0.8

Sequence: TGAGATCGTCGTCAAAT (double strand) [FucT2_T01 target 1 (SEQ 55)]
- activity (relative to I-SceI) [7]: 0.9

Sequence: TTCAAACGCACCCAATA (double strand) [FucT1_T02 target 1 (SEQ 57)]
- activity ([8]; FucT2_T02 pair on endogenous FucT1 (1-bp mismatch in left site), N. benthamiana protoplasts, control 0.79%): 46.5 % NHEJ
- activity (relative to I-SceI) ([9]; pair activity on full site SEQ 68, yeast 37C, 0.7 at 30C, protoplast NHEJ 39.2% FucT1 (Table 3)): 0.9

Sequence: TTCAAACGCACCCGATA (double strand) [FucT2_T02 target 1 (SEQ 59)]
- activity (relative to I-SceI) ([8]; pair activity on full site SEQ 69, yeast 37C, 0.7 at 30C, protoplast NHEJ 45.0% FucT2 (Table 3)): 0.9
- activity ([9]; FucT1_T02 pair on endogenous FucT2 (1-bp mismatch in left site), N. benthamiana protoplasts, control 0.14%): 24.7 % NHEJ

Sequence: TTCTTGTTTCTCTCTTC (double strand) [XylT_T03 target 1 (SEQ 49)]
- activity (relative to I-SceI) [10]: 0.9

Sequence: TTGCCTCTGTTCGTTGC (double strand) [FucT_T04 target 1 (SEQ 62)]
- activity (relative to I-SceI) [11]: 0.6

Sequence: TTTCTGGTTCGACTCGA (double strand) [FucT_T04 target 2 (SEQ 63, printed as top strand)]
- activity (relative to I-SceI) [12]: 0.6

Source: patent US20150272076
